# Test results taken from article PMC9318713, “Exploring the Utility of ssDNA Aptamers Directed against Snake Venom Toxins as New Therapeutics for Snakebite Envenoming”.
# Legend:
# [1] = molecular target: T1, batroxobin (recombinant SVSP) (Bothrops atrox? (printed B. atrox), UniProt P04971 25-255); assay: fluorescence bead binding assay; details: protein: recombinant; label: 6-FAM
# [2] = molecular target: T1, batroxobin (recombinant SVSP); assay: fluorescence bead binding assay; 2 mM Mg2+; details: protein: recombinant; label: 6-FAM (Kd); HRP (ALISA)
# [3] = molecular target: T2, ancrod (recombinant SVSP) (Calloselasma rhodostoma? (printed C. …, UniProt P26324 1-234)); assay: fluorescence bead binding assay; 2 mM Mg2+; Kd only in figure, within 3.0-17.8 nM; Kd: 50 mM Tris-HCl pH 7.5, 150 mM NaCl, 2 mM MgCl2, RT, 1 h, toxin on Sepharose beads; ALISA: 100 ng toxin coated, aptamer in nuclease-free water, RT, 2 h, PBST; details: protein: recombinant; label: 6-FAM
# T2 sequence: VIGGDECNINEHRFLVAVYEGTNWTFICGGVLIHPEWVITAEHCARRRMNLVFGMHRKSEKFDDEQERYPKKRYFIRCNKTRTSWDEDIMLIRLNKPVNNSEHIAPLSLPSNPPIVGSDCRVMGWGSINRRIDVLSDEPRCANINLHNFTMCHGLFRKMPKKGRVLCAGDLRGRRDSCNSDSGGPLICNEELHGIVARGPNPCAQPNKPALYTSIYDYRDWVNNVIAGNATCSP
# [4] = molecular target: T2, ancrod (recombinant SVSP); assay: fluorescence bead binding assay; 2 mM Mg2+; Kd: 50 mM Tris-HCl pH 7.5, 150 mM NaCl, 2 mM MgCl2, RT, 1 h, toxin on Sepharose beads; ALISA: 100 ng toxin coated, aptamer in nuclease-free water, RT, 2 h, PBST; details: protein: recombinant; label: 6-FAM (Kd); HRP (ALISA)
# T1 sequence (P04971 25-255): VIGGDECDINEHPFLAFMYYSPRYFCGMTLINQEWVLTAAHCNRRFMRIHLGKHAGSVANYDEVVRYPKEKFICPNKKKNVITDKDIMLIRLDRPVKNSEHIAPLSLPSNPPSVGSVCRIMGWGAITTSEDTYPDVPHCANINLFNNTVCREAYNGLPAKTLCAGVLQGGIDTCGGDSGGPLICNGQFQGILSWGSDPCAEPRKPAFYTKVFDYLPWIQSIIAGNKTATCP
Binder,binding result [1],binding result [3],further results
TAGTAACAGGTCTGCTTAGGCTTGCGAGGAGTACTAGTAT (ssDNA) [batroxobin-5],binds,,
AGGTCCTATTGTATACAGGGAGCCCTCGGTCTTGCTGTGA (ssDNA) [batroxobin-29],binds,,
TGTCTGGTATGCAAAGGACTGCTGTACTGTTAGCTTTTGT (ssDNA) [batroxobin-26],,,Kd [2]: 4.7 nM
TGGTCTAAGGACTGCTTAGGATTGCGATATGGTCCAGATG (ssDNA) [ancrod-11],,binds,
GGACCGACCCTTTAGCATTTATGACCCTTGTCATCGGGCT (ssDNA) [ancrod-55],,,Kd [4]: 3 nM
TAGCATGGGTGGTCAATTTAAGTACAGTGTCGTGCTCACT (ssDNA) [ancrod-7],,binds,
